Values joined by “and” are separate entries in the source; they are usually repeats but may differ in a detail not shown here. Identical values can stand only once. Like-named read-outs stand apart in the source and are kept apart here.
Columns and labels:
[1] = target: DIP-α (Dpr Interacting Protein alpha), extracellular region (Drosophila melanogaster) (UniProt Q9W4R3); experiment: SPR; Biacore T100, CM4 chip; DIPs and DIP mutants immobilised by amine coupling, Dprs as analytes; 25 °C; 10 mM Tris-HCl pH 7.2, 150 mM NaCl, 1 mM EDTA, 1 mg/mL BSA, 0.01% Tween-20; duplicate responses fit globally to a 1:1 model; Rmax fixed for KDs > 100 μM, lower limit listed for KDs > 300 μM
[2] = target: DIP-β (isoformG), extracellular region (Drosophila melanogaster); experiment: as above
[3] = target: DIP-α G4A {G74A}, extracellular region (Drosophila melanogaster) (UniProt Q9W4R3); experiment: as above
[4] = target: DIP-α N19D {N94D}, extracellular region (Drosophila melanogaster) (UniProt Q9W4R3); experiment: as above
[5] = target: DIP-α A7K {A78K}, extracellular region (Drosophila melanogaster) (UniProt Q9W4R3); experiment: as above
[6] = target: DIP-α (Dpr Interacting Protein alpha), extracellular region (Drosophila melanogaster) (UniProt Q9W4R3); experiment: as above; remark: listed apart in the source
[7] = target: DIP-α I16A {I91A}, extracellular region (Drosophila melanogaster) (UniProt Q9W4R3); experiment: as above
[8] = target: DIP-α G4L {G74L}, extracellular region (Drosophila melanogaster) (UniProt Q9W4R3); experiment: as above
[9] = target: DIP-α K10Q G4S {K81Q G74S}, extracellular region (Drosophila melanogaster) (UniProt Q9W4R3); experiment: as above
[10] = target: DIP-α A11T {A82T}, extracellular region (Drosophila melanogaster) (UniProt Q9W4R3); experiment: as above
[11] = target: DIP-α K10Q S32D {K81Q S133D}, extracellular region (Drosophila melanogaster) (UniProt Q9W4R3); experiment: as above
[12] = target: DIP-α K10Q {K81Q}, extracellular region (Drosophila melanogaster) (UniProt Q9W4R3); experiment: as above
[13] = target: DIP-α K10Q D29S {K81Q D129S}, extracellular region (Drosophila melanogaster) (UniProt Q9W4R3); experiment: as above
[14] = target: DIP-γ mutant at position 9 (Drosophila melanogaster); experiment: SPR; Biacore T100, CM4 chip; DIPs and DIP mutants immobilised by amine coupling (760-980 RU), Dprs and Dpr mutants as analytes (three-fold dilution series, up to 81 μM, in some cases up to 27 or 9 μM); 25 °C; 10 mM Tris-HCl pH 7.2, 150 mM NaCl, 1 mM EDTA, 1 mg/mL BSA, 0.01% Tween-20; equilibrium fit, 1:1 model; for KDs > 300 μM a lower limit is listed
[15] = target: DIP-γ (Drosophila melanogaster); experiment: as above
[16] = target: DIP-γ (Dpr Interacting Protein gamma), extracellular region (Drosophila melanogaster) (UniProt Q9VAR6); experiment: SPR; Biacore T100, CM4 chip; DIPs and DIP mutants immobilised by amine coupling, Dprs as analytes; 25 °C; 10 mM Tris-HCl pH 7.2, 150 mM NaCl, 1 mM EDTA, 1 mg/mL BSA, 0.01% Tween-20; duplicate responses fit globally to a 1:1 model; Rmax fixed for KDs > 100 μM, lower limit listed for KDs > 300 μM
[17] = target: DIP-γ (Dpr Interacting Protein gamma), extracellular region (Drosophila melanogaster) (UniProt Q9VAR6); experiment: as above; remark: listed apart in the source
[18] = target: DIP-γ R15N {R86N}, extracellular region (Drosophila melanogaster) (UniProt Q9VAR6); experiment: as above
[19] = target: DIP-γ R22S {R112S}, extracellular region (Drosophila melanogaster) (UniProt Q9VAR6); experiment: as above
DIP-γ R22S {R112S}, extracellular region (Drosophila melanogaster), sequence (Q9VAR6 entry or part of it R22S {R112S} | R22S R112S): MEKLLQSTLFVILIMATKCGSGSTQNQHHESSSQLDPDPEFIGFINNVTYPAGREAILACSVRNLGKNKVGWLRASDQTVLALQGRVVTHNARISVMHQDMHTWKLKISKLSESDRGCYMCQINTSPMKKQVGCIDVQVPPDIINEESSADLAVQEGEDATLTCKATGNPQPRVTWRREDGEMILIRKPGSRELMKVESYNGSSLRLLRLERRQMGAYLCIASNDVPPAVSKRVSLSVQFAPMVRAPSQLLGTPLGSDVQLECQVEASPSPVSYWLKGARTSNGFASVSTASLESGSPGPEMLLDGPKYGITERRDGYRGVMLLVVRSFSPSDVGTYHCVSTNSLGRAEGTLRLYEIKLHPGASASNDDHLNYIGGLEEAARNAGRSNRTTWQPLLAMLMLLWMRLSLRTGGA

DIP-γ (Dpr Interacting Protein gamma), extracellular region (Drosophila melanogaster), sequence (Q9VAR6 entry or part of it): as the sequence (Q9VAR6 entry or part of it R22S {R112S} | R22S R112S) above, with S112R counted along it
DIP-γ R15N {R86N}, extracellular region (Drosophila melanogaster), sequence (Q9VAR6 entry or part of it R15N {R86N} | R15N R86N): as the sequence (Q9VAR6 entry or part of it R22S {R112S} | R22S R112S) above, with R86N, S112R counted along it

Kd [1] [µM] | Kd [2] [µM] | Kd [3] [µM] | Kd [4] [µM] | Kd [5] [µM] | Kd [6] [µM] | Kd [7] [µM] | Kd [8] [µM] | Kd [9] [µM] | Kd [10] [µM] | Kd [11] [µM] | Kd [12] [µM] | Kd [13] [µM] | Kd [14] [µM] | Kd [15] [µM] | Kd [16] [µM] | Kd [17] | Kd [18] [µM] | Kd [19] [µM] | Substance
1.3 | 33.3 | 0.9 | 1.4 | 0.28 | 1.4 | 56.9 | 45.8 | 68 | 18.1 | 39.1 | 31.8 | 41.6 | – | – | – | – | – | – | Dpr10 (Defective proboscis extension response 10), extracellular region (from UniProt M9PF17 1-362) (domain or fragment)
– | – | – | – | – | – | – | – | – | – | – | – | – | 37.2 | 7.9 | – | – | – | – | Dpr11 (domain or fragment)
> 500 | 270 | – | – | – | – | – | – | – | – | – | – | – | – | – | 7.15 | 8.54 µM and 7.12 µM | 13.1 | 9.5 | Dpr11 (Defective proboscis extension response 11), extracellular region (from UniProt Q8MRE6 1-360) (domain or fragment)
